Experimental data reported in EP4725966A1, “HUMAN EPIDERMAL GROWTH FACTOR 3 ANTIBODY, PREPARATION METHOD THEREFOR, AND USE THEREOF” (priority 2023, dated 2024).
Changes are numbered by the printed parent chain.

B1: mHE1 (antibody, V domains shown)
VH: EVKLQESGPGLVKPSQSLSLTCSVTGYSITSGYYWNWIRQFPGNKLEWMGYISYDGSNNYNPSLKNRISITRDTSKNQFFLNLNSVTTEDTATYYCARVDWDGDAMDYWGQGTSVTVSS
VL: DIVLTQSPASLAVSLGQRATISCRASESVDNYGIRLMHWYQQKSGQPPKLLIHRASNLESGIPARFSGSGSRTDFTLTINPVETDDVATYYCQQSNKDPFTFGSGTKLEIKR
B2: mHE2 (antibody, V domains shown)
VH: B1 VH with N82K, V99M
VL: B1 VL with R35S, S44P, H53Y, F100P, S104A, I110L
B3: mHE5 (antibody, V domains shown)
VH: B1 VH with K3Q, N82K, R98S, V99Y, W101Y, A105W, M106F, D107A, S114L, S119A
VL: B1 VL with N31H, I34S, R35S, L36F, S44P, H53Y, L58P, F100P, S104G
B4: mHE4 (antibody, V domains shown)
VH: EVQLVESGGGLVKPGGSLKLSCAASGFTFSSYVMSWVRQTPEKRLEWVATISDGDSSTYYPDNVKGRFTISRDNAKNNLFLQMSHLKSEDTAMYFCARDKGHGYDEGAFVYWGQGTLVTVSA
VL: DIQMTQSPASLSASVEETVTITCRASENIYSYLAWYQQKQGKSPQLLVYNAKTLAEGVPSRFSGSGSGTEFSLKINSLQPEDFGSYYCQNHYGTPYTFGGGTKLEIKQ
B5: mHE6 (antibody, V domains shown)
VH: EVQLQQSGPDLVKPGTSVKMSCKASGYTFTDYYMHWVRQSHGKSLEWIGYINPNNGDAIYNQKFKGKATLTVNKSSTTAYMALRSLTSEDSAVYFCATYDYGGDFYFDVWGTGTTVTVSS
VL: DIELTQSPALMSASPGEKVTMTCSASSSVSYMYWYQQKPRSSPKPWIYLTSNLASGVPARFSGSGSGTSYSLTISSMEAEDAATYYCQQWSRNPLTFGAGTKLELKR

biological target: cynomolgus HER3-ECD-His (cynomolgus monkey) (UniProt G7PIG5); experiment: ELISA on coated Cyno HER3
Sequence (G7PIG5 entry or part of it): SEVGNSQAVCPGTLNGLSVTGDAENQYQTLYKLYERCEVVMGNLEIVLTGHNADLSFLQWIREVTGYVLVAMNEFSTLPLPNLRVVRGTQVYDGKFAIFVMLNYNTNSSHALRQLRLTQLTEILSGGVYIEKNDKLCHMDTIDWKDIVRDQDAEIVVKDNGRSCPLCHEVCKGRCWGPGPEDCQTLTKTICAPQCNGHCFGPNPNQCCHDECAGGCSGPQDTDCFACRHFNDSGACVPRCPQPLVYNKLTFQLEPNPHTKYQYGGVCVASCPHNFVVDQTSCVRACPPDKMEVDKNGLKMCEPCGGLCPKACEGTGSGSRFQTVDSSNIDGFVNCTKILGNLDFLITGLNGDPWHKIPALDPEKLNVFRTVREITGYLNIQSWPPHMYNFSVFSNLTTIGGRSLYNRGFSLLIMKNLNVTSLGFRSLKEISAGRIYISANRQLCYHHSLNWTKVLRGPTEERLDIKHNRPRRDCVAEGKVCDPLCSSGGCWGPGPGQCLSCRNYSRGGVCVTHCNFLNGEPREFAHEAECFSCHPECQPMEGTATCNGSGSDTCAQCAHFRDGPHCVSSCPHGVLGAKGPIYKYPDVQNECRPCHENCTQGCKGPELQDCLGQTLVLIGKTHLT

| OD450 [OD450] | Binder |
| --- | --- |
| 1.77 | B1 |
| 1.77 | B2 |
| 1.82 | B3 |
| 1.87 | B4 |
| 1.51 | B5 |

biological target: human HER3-ECD-His (human) (UniProt P21860); experiment: ELISA on coated human HER3

| OD450 [OD450] | Binder |
| --- | --- |
| 1.86 | B1 |
| 1.96 | B2 |
| 1.9 | B3 |
| 2.07 | B4 |
| 2.12 | B5 |

biological target: human HER3 on cells (human) (UniProt P21860); experiment: FACS on Human HER3-CHO cells

| MFI [MFI] | Binder |
| --- | --- |
| 173 | B1 |
| 195 | B2 |
| 224 | B3 |
| 199 | B4 |
| 205 | B5 |
